The values below come from patent US20100190710A1, “IL-23 RECEPTOR ANTAGONISTS AND USES THEREOF” (Valorisation HSJ, Societe en Commandite, priority 2007, published 2010).

Entries after “also recorded” stand apart in the source; their conditions may differ. Square brackets hold non-standard residues; d marks the D form. Ends that are not written are not given here.

One assay deals with T1, IL-23 receptor (Homo sapiens, UniProt Q5VWK5).
T1 sequence (Q5VWK5 24-629): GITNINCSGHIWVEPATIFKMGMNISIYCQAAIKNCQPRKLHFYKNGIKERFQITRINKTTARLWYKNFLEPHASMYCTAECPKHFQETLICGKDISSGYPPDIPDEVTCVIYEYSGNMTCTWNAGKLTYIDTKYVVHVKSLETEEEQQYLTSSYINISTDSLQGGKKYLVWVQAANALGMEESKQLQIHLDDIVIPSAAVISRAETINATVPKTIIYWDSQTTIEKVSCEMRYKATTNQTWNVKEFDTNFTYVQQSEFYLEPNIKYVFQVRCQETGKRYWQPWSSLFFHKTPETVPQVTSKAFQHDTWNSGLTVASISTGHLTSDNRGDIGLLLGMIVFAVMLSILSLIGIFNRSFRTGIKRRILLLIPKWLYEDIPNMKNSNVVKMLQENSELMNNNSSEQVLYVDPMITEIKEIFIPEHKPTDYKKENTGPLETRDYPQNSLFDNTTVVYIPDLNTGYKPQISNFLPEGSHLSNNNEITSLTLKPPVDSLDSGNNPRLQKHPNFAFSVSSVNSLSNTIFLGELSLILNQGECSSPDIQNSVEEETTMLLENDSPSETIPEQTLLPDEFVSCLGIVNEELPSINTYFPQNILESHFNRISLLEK
Briefly: IL-23-induced STAT3 phosphorylation in PMA-activated HL-60 monocytes (Western blot). The format is cell-based. On the set-up: endogenous in cells. The conditions noted are these: PMA-activated HL-60 human monocytes; peptide 1 μM, 30 min pre-incubation; IL-23 10 ng/ml, 15 min. Here is the method:
FIG. 2 is a graph showing the results of efficacy screening of peptides designed from the IL-23 receptor. HL-60 human monocytes were pre-incubated for 30 minutes with the particular peptides (1 μM) and stimulated for 15 minutes with IL-23 (10 ng/ml). Western Blot analysis of phosphorylated-STAT3 and total STAT3 was performed on cell lysates. Immunoblot densitometry was measured using ImagePro4+ software. […] FIGS. 3A and 3B are graphs showing inhibition of IL-23-induced STAT3 phosphorylation and TNFα generation. […] Western Blot analysis was performed on cell lysates, and immunoblot densitometry was measured using ImagePro4+ software. […] TNFα production was quantified by ELISA 24 hours after stimulation with IL-23 using the Quantikine ELISA Kit (R&D systems). […] D-peptides 2303, 2305, 2307 and 2309 (1 μM) inhibit IL-23-induced STAT3 phosphorylation in phorbol 12-myristate 13-acetate (PMA)-activated human monocytes (HL-60) (FIG. 2).
On the technique in general: A western blot detects proteins with antibodies after separation by electrophoresis.

The target in another assay is T2, IL-23R (Mus musculus, UniProt Q8K4B4).
T2 construct: Spleens were sterilely removed from mice, sliced, and mashed in the presence of PBS buffer; from tissue; host or cells: mouse spleen: freshly isolated splenocytes, and CD4+ cells differentiated into TH17 cells
T2 sequence (Q8K4B4 24-644): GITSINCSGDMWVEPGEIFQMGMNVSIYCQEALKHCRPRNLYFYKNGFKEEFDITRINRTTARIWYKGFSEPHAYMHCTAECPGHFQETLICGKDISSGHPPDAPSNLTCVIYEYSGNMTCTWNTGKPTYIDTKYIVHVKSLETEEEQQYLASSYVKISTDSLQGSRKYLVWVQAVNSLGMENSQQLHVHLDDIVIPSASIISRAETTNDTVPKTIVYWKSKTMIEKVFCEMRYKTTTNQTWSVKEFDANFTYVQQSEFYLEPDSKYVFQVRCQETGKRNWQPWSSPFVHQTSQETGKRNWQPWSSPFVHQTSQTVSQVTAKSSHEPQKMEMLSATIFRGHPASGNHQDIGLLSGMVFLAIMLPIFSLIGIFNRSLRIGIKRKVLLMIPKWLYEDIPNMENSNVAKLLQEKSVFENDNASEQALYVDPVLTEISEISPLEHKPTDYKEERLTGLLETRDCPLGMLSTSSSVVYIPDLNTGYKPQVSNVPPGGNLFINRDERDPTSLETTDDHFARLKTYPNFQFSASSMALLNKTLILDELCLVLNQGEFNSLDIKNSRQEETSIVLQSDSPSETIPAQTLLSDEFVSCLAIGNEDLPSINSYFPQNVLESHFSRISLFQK
The experiment in a line: IL-23-induced STAT3 phosphorylation in freshly isolated splenocytes (Alpha Screen SureFire p-STAT-3). The assay is classed as cell-based. Here is the method:
Spleens were sterilely removed from mice, sliced, and mashed in the presence of PBS buffer, 2% fetal bovine serum, and 1 mM EDTA. Tissue was allowed to pass through a number 26 syringe and was filtered through a 70 μm mesh nylon strainer. Cells were cultured with non-essential amino acids, 2 μg/ml of anti-CD3, and 20 μg/ml of anti-CD-28 as survival and differentiation factors.
Splenocytes or TH17 cells were distributed in 384-well plates (Optiplate; Perkin Elmer) (100,000 cells/well). Cells were pre-incubated for 30 minutes with different concentrations of peptide APG-2305 or APG-2309 and incubated with 25 ng/ml of IL-23 (R&D systems) for 10 minutes. STAT3 phosphorylation was determined with the kit Alpha Screen SureFire p-STAT-3 assay from Perkin Elmer according to manufacturer's instructions. Briefly, after incubation with IL-23, cells were lysed and contacted with (1) protein A acceptor conjugated beads coated with anti-p-STAT-3 (Tyr705) and (2) streptavidin-coated donor beads. The resulting signal was measured with a Perkin Elmer Wallac En vision 2104 Multilabel reader. Graphs were generated using GraphPrism 4 software.
The effect of peptide APG-2305 and APG-2309 derivatives on IL-23-induced STAT3 phosphorylation was determined using CD-1 mice freshly isolated splenocytes and the Alpha Screen p-STAT3 assay (see above materials and methods) (FIGS. 6 and 7). […] As described herein, based on the efficacy of derivatives, we have identified regions in APG-2305 and APG-2309 peptides that are important for their ability to affect IL-23R activity.

Assay [1] concerns the target T3, mouse IL-23 receptor (IL-23R) on mouse splenocytes and differentiated TH17 cells (mouse, UniProt Q8K4B4 24-644).
T3 sequence (looked up): T2 sequence (Q8K4B4 24-644)
The experiment in a line: cell-based or functional assay.

The target in assay [2] is T4, human IL-23 receptor (IL-23R) on PMA-activated HL-60 human monocytes (human, UniProt Q5VWK5 24-629).
T4 sequence (looked up): T1 sequence (Q5VWK5 24-629)
The experiment in a line: cell-based or functional assay.

The mark [3] stands for this setting: mouse splenocytes (FIGS. 6 and 7).

Turning to DLSSGYPPDI [Peptide 2301], the “effect on IL-23-induced STAT3 phosphorylation” value (from here on “effect”) with IL-23 receptor is recorded as “agonistic properties; also recorded: agonist of IL-23R biological activity”.
Consider EEQQYL [Peptide 2305-5], for which the “activity of derivative compared to parent peptide, STAT3 phosphorylation assay” value with IL-23R (setting [3]) was “measurable loss of activity”.
Consider EQQYL [Peptide 2305-6], for which, in the assay with IL-23R (setting [3]), the “activity of derivative compared to parent peptide, STAT3 phosphorylation assay” value is “measurable loss of activity”.
Take ESKQLQL [Peptide 2309-3]: the “activity of derivative compared to parent peptide, STAT3 phosphorylation assay” value in the assay with IL-23R (setting [3]) is given as “increases the activity”.
Consider KKYLVWVQ [Peptide 2307], for which the “effect” value with IL-23 receptor is given as “antagonize IL-23-induced STAT3 phosphorylation; also recorded: demonstrable efficacy; also recorded: inhibit”.
For the molecule LPDEVTCV [Peptide 2303], the “effect” value in the assay with IL-23 receptor was “antagonize IL-23-induced STAT3 phosphorylation; also recorded: demonstrable efficacy; also recorded: inhibit”.
Turning to “LVLDDLHLQLQKSEEMGLANAAQV (not fully specified (some residues); also: D-amino acids, extent not given here) [Peptide 2309-2-1]”, the “activity of derivative compared to parent peptide, STAT3 phosphorylation assay” value with IL-23R (setting [3]) is recorded as “better efficacy than the parent 2309 peptide”.
With MAESKQLQL [Peptide 2309-1], the “activity of derivative compared to parent peptide, STAT3 phosphorylation assay” value with IL-23R (setting [3]) was “increases the activity”.
For the molecule TEEAQQYL [Peptide 2305-1], the “activity of derivative compared to parent peptide, STAT3 phosphorylation assay” value with IL-23R (setting [3]) is given as “total loss of activity”.
As to TEEE [Peptide 2305-11], the “activity of derivative compared to parent peptide, STAT3 phosphorylation assay” value with IL-23R (setting [3]) is “increased the activity”.
Consider TEEEQ [Peptide 2305-10], for which, in the assay with IL-23R (setting [3]), the “activity of derivative compared to parent peptide, STAT3 phosphorylation assay” value was “increased the activity”.
For the molecule TEEEQQ [Peptide 2305-9], in the assay with IL-23R (setting [3]), the “activity of derivative compared to parent peptide, STAT3 phosphorylation assay” value is “abolished the activity”.
Take TEEEQQY [Peptide 2305-8]: the “activity of derivative compared to parent peptide, STAT3 phosphorylation assay” value in the assay with IL-23R (setting [3]) is reported as “abolished the activity”.
With “VQAANALGMEESKQLQLHLDDLVL [Peptide 2309-1-1, extended region of peptide 2309 covering part of the loop in D3 domain of IL-23R]”, in the assay with IL-23R (mouse splenocytes (FIG. 7)), the “inhibition of STAT3 phosphorylation by derivative” value is given as 100%. Besides, the “increase in activity relative to the parent peptide” value with IL-23R (setting [3]) is 50%.
TEEEAAYL [APG-2305-13]: in assay [1], the “inhibition of IL-23-induced STAT3 phosphorylation in mouse splenocytes (FIG. 6), change relative to parent 2305” value was determined as 25%.
With [dM][dE][dE][dS][dK][dQ][dL][dQ][dL] [peptide APG-2309], in assay [2], the “inhibition of IL-23-induced STAT3 phosphorylation in PMA-activated HL-60 monocytes, IC50” value is 2 nM and the “inhibition of IL-23-induced tumor necrosis factor (TNF) formation in PMA-activated HL-60 monocytes (ELISA), IC50” value was 1.6 nM. In assay [1], the “IC50 for IL-23-induced STAT3 phosphorylation in mouse splenocytes (25 ng/ml mouse IL-23)” value came out at 2 nM.
